Measured values from patent US20230192840A1.

Tests used:
[1] = target: human Claudin18.2 (human) (UniProt P56856); test: flow cytometry (IntelliCyt) on Ba/F3-Claudin 18.2 cells
[2] = target: human Claudin18.2 (human) (UniProt P56856); test: cell-based or functional assay

Max MFI [1]	ADCC EC50 [2]	Binder	ADCC Max killing rate % [2]
8.99e+06 MFI	0.08 µg/mL	humanized antibody 1E9.2-hz15 (antibody, human IgG1, kappa, V domains shown) VH: EVQLVESGGGLVKPGGSLRLSCAASGFSFSNSAMSWVRQAPGKGLEWVSTISSGDSYTYYADSVKGRFTISRDNAKNSLYLQMNSLRAEDTAVYYCARQGYGNALDYWGQGTLVTVSS VL: DIVMTQTPLSLPVTPGEPASISCKSSQSLLNSGNQKNYLTWYLQKPGQSPQLLIYWSSTRESGVPDRFSGSGSGTDFTLKISRVEAEDFGVYYCQNDYYYPLTFGGGTKVEIKR	66.2%
5.9e+06 MFI	0.113 µg/mL	humanized antibody 1E9.2-hz17 (antibody, human IgG1, kappa, V domains shown) VH: EVQLVESGGGLVKPGGSLRLSCAASGFSFSNSAMSWVRQAPGKGLEWVSTISSGDSYTYYADSVKGRFTISRDNAKNSLYLQMNSLRAEDTAVYYCARQGYGNALDYWGQGTLVTVSS VL: DIVMTQTPLSLPVTPGEPASISCKSSQSLLQSGNGKNYLTWYLQKPGQSPQLLIYWSSTRESGVPDRFSGSGSGTDFTLKISRVEAEDFGVYYCQNDYYYPLTFGGGTKVEIKR	59.6%
